Residue numbers refer to the chain shown, from its start. Numbers in names are those of the source.
T1: p9CREB, ILSRRPS(p)YR
T1 chain: ILSRRPSYR

T2: PGS-1, YRRAAVPPSPSLSRHSSPSQS(p)EDEEE
T2 chain: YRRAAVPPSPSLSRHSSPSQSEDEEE

T3: pIRS-1, RREGGMSRPAS(p)VDG
T3 chain: RREGGMSRPASVDG

T4: L803-mts (not fully specified)
T4 chain: GKEAPPAPPQSP

B1: GSK-3β F93A mutant (protein)
chain: MSGRPRTTSFAESCKPVQQPSAFGSMKVSRDKDGSKVTTVVATPGQGPDRPQEVSYTDTKVIGNGSFGVVYQAKLCDSGELVAIKKVLQDKRAKNRELQIMRKLDHCNIVRLRYFFYSSGEKKDEVYLNLVLDYVPETVYRVARHYSRAKQTLPVIYVKLYMYQLFRSLAYIHSFGICHRDIKPQNLLLDPDTAVLKLCDFGSAKQLVRGEPNVSYICSRYYRAPELIFGATDYTSSIDVWSAGCVLAELLLGQPIFPGDSGVDQLVEIIKVLGTPTREQIREMNPNYTEFKFPQIKAHPWTKDSSGTGHFTSGVRVFRPRTPPEAIALCSRLLEYTPTARLTPLEACAHSFFDELRDPNVKLPNGRDTPALFNFTTQELSSNPPLATILIPPHARIQAAASTPTNATAASDANTGDRGQTNNAASASASNST
B2: GSK-3β D90A mutant (protein)
chain: B1 chain with D90A, A93F
B3: GSK-3β K91A mutant (protein)
chain: B1 chain with K91A, A93F
B4: GSK-3β R92A mutant (protein)
chain: B1 chain with R92A, A93F
B5: GSK-3β K94A mutant (protein)
chain: B1 chain with A93F, K94A
B6: wild-type (WT) GSK-3β (protein)
chain: B1 chain with A93F

Tests used:
p9CREB, ILSRRPS(p)YR = target: T1, p9CREB, ILSRRPS(p)YR
[1] = target: T2, PGS-1, YRRAAVPPSPSLSRHSSPSQS(p)EDEEE
[2] = target: T3, pIRS-1, RREGGMSRPAS(p)VDG
L803-mts = target: T4, L803-mts

Row | Protein | Substrate phosphorylation (% of WTGSK-3β) (% of WTGSK-3β) (p9CREB, ILSRRPS(p)YR) | Substrate phosphorylation (% of WTGSK-3β) (% of WTGSK-3β) [1] | Substrate phosphorylation (% of WTGSK-3β) (% of WTGSK-3β) [2] | in vitro kinase assays using pIRS-1, p9CREB, and pGS-1 substrate in the presence or absence of L803-mts (100 µM) (L803-mts)
1 | B1 | 46 | 13 | 42 | 
2 | B2 | 92 | 83 | 88 | 
3 | B3 | 161 | 119 | 140 | 
4 | B4 | 49 | 41 | 60 | 
5 | B5 | 71 | 19 | 52 | 
6 | B6 |  |  |  | L803-mts (SEQ ID NO:5) competes with various substrates
